The target in the assay is soluble, freshly prepared monomeric Aβ(1-40) (UniProt P05067). In words: capture ELISA, antibody immobilized, soluble monomeric Aβ(1-40) in solution. Background: ELISA stands for enzyme-linked immunosorbent assay.

Take 3D6 (antibody): the EC50 was found to be 1 nM. This counts as single-digit nanomolar.

As usually defined, the EC50 is the concentration giving half of the maximal effect. Low readings indicate a more potent agent, high ones a less potent agent.
